Measured values taken from article PMC4528106.
Read-outs that look alike come from different tables or passages of the source.

Experiments:
[1] = biological target: HKU4-CoV 3CLpro (bat coronavirus HKU4)
[2] = biological target: MERS-CoV 3CLpro (nsp5 protease), without any N- or C-terminal extensions (MERS-CoV)
[3] = biological target: MERS-CoV 3CLpro (nsp5 protease), without any N- or C-terminal extensions (MERS-CoV); assay: AUC
[4] = biological target: SARS-CoV 3CLpro with authentic N and C termini (SARS-CoV)

With HKU4-CoV 3CLpro (enzyme) the Kd [1] was 0.1 µM.
“MERS-CoV 3CLpro (nsp5 protease), without any N- or C-terminal extensions (enzyme)” was tested, and the Kd [2] was 7.8 µM, the Kd [3] was 52 µM and the koff [3] was 0.0001 s⁻¹. For the same substance, the stoichiometry N [3] was 2.
Work on “SARS-CoV 3CLpro with authentic N and C termini (enzyme)” yielded a Kd [4] of 0.06 µM.
